Assay results published in IntAct's records for PubMed 29611543.

Biological target: T1, trem2_human TREM2 (UniProt Q9NZC2)
T1 sequence: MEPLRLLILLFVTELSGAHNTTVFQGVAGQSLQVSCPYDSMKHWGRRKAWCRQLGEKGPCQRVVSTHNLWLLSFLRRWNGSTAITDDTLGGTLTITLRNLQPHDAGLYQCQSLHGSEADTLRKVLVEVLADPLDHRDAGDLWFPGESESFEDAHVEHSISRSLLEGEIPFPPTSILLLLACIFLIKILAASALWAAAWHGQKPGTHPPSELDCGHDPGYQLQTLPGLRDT

Substance: Presenilin-1 (Homo sapiens) (from UniProt P49768) D385A
- effect of a mutation on the interaction: with no effect
